# Source: US20240000840A1
# Molecular target: CD20 on CD20+ human Burkitt's lymphoma cell lines (Ramos, Raji) (human) (UniProt P11836)
# Assay: cell-based or functional assay
# Sequence of UniProt P11836 (P11836 whole entry): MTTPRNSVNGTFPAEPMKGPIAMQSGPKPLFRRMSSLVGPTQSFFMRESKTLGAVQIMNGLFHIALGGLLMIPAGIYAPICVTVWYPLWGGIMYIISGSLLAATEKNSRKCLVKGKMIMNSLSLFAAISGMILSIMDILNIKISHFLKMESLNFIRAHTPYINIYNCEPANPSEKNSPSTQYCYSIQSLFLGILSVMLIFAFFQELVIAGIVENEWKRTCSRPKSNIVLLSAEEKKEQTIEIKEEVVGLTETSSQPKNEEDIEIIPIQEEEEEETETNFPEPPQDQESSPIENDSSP
substance,measurement,value
Rituximab (Mabthera or Rituxan) (antibody),"% of Raji alive, AB-101 + RTX, 24 h, batch 19AB101PN001",13.8%
same,"% of Raji alive, AB-101 + RTX, 24 h, batch 19AB101PN004",21.1%
same,"% of Raji alive, AB-101 + RTX, 24 h, batch 19AB101PN005",34.1%
same,"% of Raji alive, AB-101 + RTX, 24 h, batch 20AB101PG001",25.8%
same,"% of Raji alive, AB-101 + RTX, 24 h, batch 20AB101PG002",14.3%
same,"% of Raji alive, AB-101 + RTX, 24 h, batch 20AB101PN001",16.8%
same,"% of Raji alive, AB-101 + RTX, 24 h, batch 20AB101PN002",26.6%
same,"% of Raji alive, AB-101 + RTX, 24 h, batch 20AB101PN003",28.4%
same,"% of Raji alive, AB-101 + RTX, 24 h, batch 20AB101PN004",34.3%
same,"% of Raji alive, AB-101 + RTX, 48 h, batch 19AB101PN001",6.6%
same,"% of Raji alive, AB-101 + RTX, 48 h, batch 19AB101PN004",8.9%
same,"% of Raji alive, AB-101 + RTX, 48 h, batch 19AB101PN005",18.6%
same,"% of Raji alive, AB-101 + RTX, 48 h, batch 20AB101PG001",11.7%
same,"% of Raji alive, AB-101 + RTX, 48 h, batch 20AB101PG002",5.5%
same,"% of Raji alive, AB-101 + RTX, 48 h, batch 20AB101PN001",9.2%
same,"% of Raji alive, AB-101 + RTX, 48 h, batch 20AB101PN002",12.5%
same,"% of Raji alive, AB-101 + RTX, 48 h, batch 20AB101PN003",13.3%
same,"% of Raji alive, AB-101 + RTX, 48 h, batch 20AB101PN004",18.6%
same,"% of Raji alive, AB-101 + RTX, 72 h, batch 19AB101PN001",4.5%
same,"% of Raji alive, AB-101 + RTX, 72 h, batch 19AB101PN004",9.4%
same,"% of Raji alive, AB-101 + RTX, 72 h, batch 19AB101PN005",11.5%
same,"% of Raji alive, AB-101 + RTX, 72 h, batch 20AB101PG001",9.6%
same,"% of Raji alive, AB-101 + RTX, 72 h, batch 20AB101PG002",3.6%
same,"% of Raji alive, AB-101 + RTX, 72 h, batch 20AB101PN001",7.5%
same,"% of Raji alive, AB-101 + RTX, 72 h, batch 20AB101PN002",13.9%
same,"% of Raji alive, AB-101 + RTX, 72 h, batch 20AB101PN003",12.3%
same,"% of Raji alive, AB-101 + RTX, 72 h, batch 20AB101PN004",18.3%
same,"% of Ramos alive, AB-101 + RTX, 24 h, AVE of 9 batches (raw data table; differs from 47.6 in Table 26)",47.9%
same,"% of Ramos alive, AB-101 + RTX, 24 h, batch 19AB101PN001",29.5%
same,"% of Ramos alive, AB-101 + RTX, 24 h, batch 19AB101PN004",37.1%
same,"% of Ramos alive, AB-101 + RTX, 24 h, batch 19AB101PN005",59.7%
same,"% of Ramos alive, AB-101 + RTX, 24 h, batch 20AB101PG001",54.1%
same,"% of Ramos alive, AB-101 + RTX, 24 h, batch 20AB101PG002",22.1%
same,"% of Ramos alive, AB-101 + RTX, 24 h, batch 20AB101PN001",46.2%
same,"% of Ramos alive, AB-101 + RTX, 24 h, batch 20AB101PN003",57.7%
same,"% of Ramos alive, AB-101 + RTX, 24 h, batch 20AB101PN004",54.8%
same,"% of Ramos alive, AB-101 + RTX, 48 h, batch 19AB101PN001",12.1%
same,"% of Ramos alive, AB-101 + RTX, 48 h, batch 19AB101PN004",18.6%
same,"% of Ramos alive, AB-101 + RTX, 48 h, batch 19AB101PN005",38.1%
same,"% of Ramos alive, AB-101 + RTX, 48 h, batch 20AB101PG001",37.4%
same,"% of Ramos alive, AB-101 + RTX, 48 h, batch 20AB101PG002",7.7%
same,"% of Ramos alive, AB-101 + RTX, 48 h, batch 20AB101PN001",22.8%
same,"% of Ramos alive, AB-101 + RTX, 48 h, batch 20AB101PN002",53%
same,"% of Ramos alive, AB-101 + RTX, 48 h, batch 20AB101PN003",34.4%
same,"% of Ramos alive, AB-101 + RTX, 48 h, batch 20AB101PN004",29.2%
same,"% of Ramos alive, AB-101 + RTX, 72 h, batch 19AB101PN001",6.6%
same,"% of Ramos alive, AB-101 + RTX, 72 h, batch 19AB101PN004",11.4%
same,"% of Ramos alive, AB-101 + RTX, 72 h, batch 19AB101PN005",30.9%
same,"% of Ramos alive, AB-101 + RTX, 72 h, batch 20AB101PG001",23.5%
same,"% of Ramos alive, AB-101 + RTX, 72 h, batch 20AB101PG002",4.1%
same,"% of Ramos alive, AB-101 + RTX, 72 h, batch 20AB101PN001",11%
same,"% of Ramos alive, AB-101 + RTX, 72 h, batch 20AB101PN002",40.3%
same,"% of Ramos alive, AB-101 + RTX, 72 h, batch 20AB101PN003",21.8%
same,"% of Ramos alive, AB-101 + RTX, 72 h, batch 20AB101PN004",21.3%
same,"Viable Raji cells (%), AB-101 + RTX, 24 hrs, mean of 9 AB-101 batches (long-term ADCC, IncuCyte)",23.9%
same,"Viable Raji cells (%), AB-101 + RTX, 48 hrs, mean of 9 AB-101 batches (long-term ADCC, IncuCyte)",11.7%
same,"Viable Raji cells (%), AB-101 + RTX, 72 hrs, mean of 9 AB-101 batches (long-term ADCC, IncuCyte)",10.1%
same,"Viable Ramos cells (%), AB-101 + RTX, 24 hrs, mean of 9 AB-101 batches (long-term ADCC, IncuCyte)",47.6%
same,"Viable Ramos cells (%), AB-101 + RTX, 48 hrs, mean of 9 AB-101 batches (long-term ADCC, IncuCyte)",28.1%
same,"Viable Ramos cells (%), AB-101 + RTX, 72 hrs, mean of 9 AB-101 batches (long-term ADCC, IncuCyte)",19%
same,"lysis of target cells (Raji), AB-101 combined with rituximab, end of the 72 hour co-culture, E:T 1:1 (live-cell analysis, Example 9)",90%
same,"lysis of target cells (Ramos), AB-101 combined with rituximab, end of 72 hrs co-culture, E:T 1:1 (live-cell analysis, Example 9)",80%
